The record followed here is patent US20210187069A1.

This assay concerns the target T1, wildtype SARM1 (endogenous, in wildtype mouse dorsal root ganglion neurons) (mouse) (UniProt Q6PDS3).
T1 sequence (looked up): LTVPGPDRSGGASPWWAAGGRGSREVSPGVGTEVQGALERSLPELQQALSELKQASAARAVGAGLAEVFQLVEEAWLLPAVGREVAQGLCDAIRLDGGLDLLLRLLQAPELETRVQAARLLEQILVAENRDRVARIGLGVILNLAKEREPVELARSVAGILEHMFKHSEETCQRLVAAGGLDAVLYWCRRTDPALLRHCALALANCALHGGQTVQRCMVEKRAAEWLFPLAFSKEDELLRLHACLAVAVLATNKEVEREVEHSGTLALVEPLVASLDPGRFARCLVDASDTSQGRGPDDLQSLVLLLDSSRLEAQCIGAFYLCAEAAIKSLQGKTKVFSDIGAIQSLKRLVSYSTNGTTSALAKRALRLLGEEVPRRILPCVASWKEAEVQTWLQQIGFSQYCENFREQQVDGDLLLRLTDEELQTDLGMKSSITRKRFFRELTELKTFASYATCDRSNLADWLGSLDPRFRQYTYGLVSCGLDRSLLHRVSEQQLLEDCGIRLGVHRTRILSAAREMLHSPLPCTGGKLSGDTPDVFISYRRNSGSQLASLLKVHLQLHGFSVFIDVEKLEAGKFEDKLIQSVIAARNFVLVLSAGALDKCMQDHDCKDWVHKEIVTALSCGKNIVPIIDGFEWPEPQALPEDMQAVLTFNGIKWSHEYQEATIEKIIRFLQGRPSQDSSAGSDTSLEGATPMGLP
Description: cell-based or functional assay.

Residue numbers refer to the chain shown, from its start. Names and notes keep the numbering of the source.

B1: SARM1-K597E (enzyme, not shown: large carriers)
chain: LAVPGPDGGGGTGPWWAAGGRGPREVSPGAGTEVQDALERALPELQQALSALKQAGGARAVGAGLAEVFQLVEEAWLLPAVGREVAQGLCDAIRLDGGLDLLLRLLQAPELETRVQAARLLEQILVAENRDRVARIGLGVILNLAKEREPVELARSVAGILEHMFKHSEETCQRLVAAGGLDAVLYWCRRTDPALLRHCALALGNCALHGGQAVQRRMVEKRAAEWLFPLAFSKEDELLRLHACLAVAVLATNKEVEREVERSGTLALVEPLVASLDPGRFARCLVDASDTSQGRGPDDLQRLVPLLDSNRLEAQCIGAFYLCAEAAIKSLQGKTKVFSDIGAIQSLKRLVSYSTNGTKSALAKRALRLLGEEVPRPILPSVPSWKEAEVQTWLQQIGFSKYCESFREQQVDGDLLLRLTEEELQTDLGMKSGITRKRFFRELTELKTFANYSTCDRSNLADWLGSLDPRFRQYTYGLVSCGLDRSLLHRVSEQQLLEDCGIHLGVHRARILTAAREMLHSPLPCTGGKPSGDTPDVFISYRRNSGSQLASLLKVHLQLHGFSVFIDVEELEAGKFEDKLIQSVMGARNFVLVLSPGALDKCMQDHDCKDWVHKEIVTALSCGKNIVPIIDGFEWPEPQVLPEDMQAVLTFNGIKWSHEYQEATIEKIIRFLQGRSSRDSSAGSDTSLEGAAPMGPTATT
In the case of B1, the axon degeneration (degeneration index) after axotomy of wildtype DRG neurons amounted to 36 h.

B2: SARM1-K193R/E642A (enzyme, not shown: large carriers)
chain: B1 chain with K166R, E570K, E615A
For B2, the axon degeneration after 40 nM vincristine, wildtype DRG neurons was more than 120 h.

B3: SARM1 C629S (enzyme, not shown: large carriers)
chain: B1 chain with E570K, C602S
B3: the axon degeneration after axotomy was 24 h.

B4: SARM1-K193R/H194A/H685A (SARM1-compound dominant negative) (enzyme, not shown: large carriers)
chain: B1 chain with K166R, H167A, E570K, H658A
As to B4, the axon degeneration (degeneration index) and TMRM-positive mitochondria after axotomy of wildtype DRG neurons was more than 96 h; the axon degeneration after 40 nM vincristine, wildtype DRG neurons is more than 120 h; the axon degeneration and TMRM-positive mitochondria after 40 nM vincristine, wildtype DRG neurons was more than 96 h.

B5: SARM1-E642A (enzyme, not shown: large carriers)
chain: B1 chain with E570K, E615A
B5 gave a mitochondrial membrane potential (TMRM fluorescence) in severed axons of wildtype DRG neurons of 24 h.

B6: SARM1-K193R/H685A (enzyme, not shown: large carriers)
chain: B1 chain with K166R, E570K, H658A
For B6, the axon degeneration after axotomy of wildtype DRG neurons is more than 120 h.

B7: SARM1 D627K (enzyme, not shown: large carriers)
chain: B1 chain with E570K, D600K
B7 showed an axon degeneration after axotomy of 24 h.

B8: SARM1 K628D (enzyme, not shown: large carriers)
chain: B1 chain with E570K, K601D
Molecule B8 yielded an axon degeneration after axotomy of 24 h.

B9: SARM1-H685A/E642A (enzyme, not shown: large carriers)
chain: B1 chain with E570K, E615A, H658A
B9 registered an axon degeneration after 40 nM vincristine, wildtype DRG neurons of more than 120 h.

B10: SARM1-H685Y (enzyme, not shown: large carriers)
chain: B1 chain with E570K, H658Y
As for B10, the axon degeneration (degeneration index) after axotomy of wildtype DRG neurons amounted to 72 h.

B11: SARM1-K193R (enzyme, not shown: large carriers)
chain: B1 chain with K166R, E570K
As to B11, the axon degeneration (degeneration index) after axotomy of wildtype DRG neurons is 72 h.

B12: SARM1-H685A (enzyme, not shown: large carriers)
chain: B1 chain with E570K, H658A
Turning to B12, the axon degeneration (degeneration index) after axotomy of wildtype DRG neurons worked out at 72 h.

B13: SARM1-deltaTIR (enzyme, not shown: large carriers)
chain: MLAVPGPDGGGGTGPWWAAGGRGPREVSPGAGTEVQDALERALPELQQALSALKQAGGARAVGAGLAEVFQLVEEAWLLPAVGREVAQGLCDAIRLDGGLDLLLRLLQAPELETRVQAARLLEQILVAENRDRVARIGLGVILNLAKEREPVELARSVAGILEHMFKHSEETCQRLVAAGGLDAVLYWCRRTDPALLRHCALALGNCALHGGQAVQRRMVEKRAAEWLFPLAFSKEDELLRLHACLAVAVLATNKEVEREVERSGTLALVEPLVASLDPGRFARCLVDASDTSQGRGPDDLQRLVPLLDSNRLEAQCIGAFYLCAEAAIKSLQGKTKVFSDIGAIQSLKRLVSYSTNGTKSALAKRALRLLGEEVPRPILPSVPSWKEAEVQTWLQQIGFSKYCESFREQQVDGDLLLRLTEEELQTDLGMKSGITRKRFFRELTELKTFANYSTCDRSNLADWLGSLDPRFRQYTYGLVSCGLDRSLLHRVSEQQLLEDCGIHLGVHRARILTAAREMLHSPLPCTGGKPSGDATT
Molecule B13 returned an axon degeneration (degeneration index) after axotomy of wildtype DRG neurons of 36 h.
